This data set in a line: yeast display, Sf9 membrane polyspecificity reagent, FACS + sequencing; frameworks hold sequencing errors. In outline: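 Nanobodies came from a synthetic yeast display library in Saccharomyces cerevisiae BJ5465, induced with galactose for 36–48 hours and stained for 1 hour at 4 °C with 10% biotinylated, detergent-solubilized Sf9 membrane reagent. Cells were enriched on streptavidin microbeads and then FACS-sorted, with low and high (top ~1%) gates set on anti-HA fluorescence for expression and streptavidin fluorescence for reagent binding. Each polyreactivity label reflects the gate a clone came from. Genes were amplified by colony PCR, sequenced by MiSeq 2 × 250 and filtered by CDR length.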
Regarding “QVQLVESGGGLVQAGRSLRLSCAASVSIFAGYAMGWYRQAPGKERELVAGISYSGGRTYYADSVKGRFTISRDNAKNTVYLQMNSLKPEDTAVYYCNARFVRVRKGYGYWGLGTQVTVSS”, the “polyreactivity (PSR sort gate)” value is on record as “high polyreactivity”.

As to “QVQLVESGGGLVQAGRSLRVSCAASGRIFIWNAMGWYRQAPGNERELVAAISWSGGSTYYADSVKGRFTISRDNAKNTVYLQINSLKPEDTAVYYCAARDVRPYYVKPPVRYYYWGQGTQVTVSS”, the “polyreactivity (PSR sort gate)” value is on record as “high polyreactivity”.

“QVQLVESGGGLVQAGRTLRLSCAASGFTFYYNAMGWYRQAPGKERELVATITGSTYYADSVKGLFTISRDNATYSVYLQMNSLKPEDTAVYYCTADASLVLAEYDYWGQGTQVTVSS”: the “polyreactivity (PSR sort gate)” value is reported as “low polyreactivity”.

For the sequence “QVQLVESGGGLVQAGVSLRISCAASASILVTNAMGWYRHAPGKERELVAAITSIGGSTNYADSVKGRFTISRDNAKNTVYLQMNSLKPEDTAVYYCAAGIYPTVFWVYYWGQGTQVTVSS”, the “polyreactivity (PSR sort gate)” value is “low polyreactivity”.

“QVQLVESGGGLVQAGVSLRLSCAASGFTFYYNAMGWYRQAPGKERELVAAINYSGGSTYYADSVKGRFTISRDNAKNTVYLQMNSLKPEDTAVYYCNAVGYSVFRRYNYWGQGTQVTVSS”: the “polyreactivity (PSR sort gate)” value is given as “high polyreactivity”.

Turning to “QVQLVESGGGLVQAGVSLRLSCAASGGTLSNYAMGWYRQAPGKERELVAAITYRGGSTYYADSVKGRFTISRDNAKNTVYLQMNSQKPEDTAVYSCAAPGFKPFSFDSWGQGTQVTVSS”, the “polyreactivity (PSR sort gate)” value is reported as “low polyreactivity”.

For “QVQLVESGGGLVQAGVSLRLSCAASGKTVYSYAMGWYRQAPGKKRQLVAGISYIGGRTYYADSVKGRFTISRDNAKNTFYLQMNSLNPEDTAFYYCAAVYWYGRRKYYSWGQGTQVTVSS”, the “polyreactivity (PSR sort gate)” value is “high polyreactivity”.

As to “QVQLVESGGGLVQAGVSLRLSCAASGLTFGNYAMGWYRQAPGKERELVAAISKRGGTTYYADSVKARFTISRDNAKNTVYLQMNSLKPEDTAVYYCSARDYSHPTDDNYWGQGTQVTVSS”, the “polyreactivity (PSR sort gate)” value is listed as “high polyreactivity”.

Regarding “QVQLVESGGGLVQAGVSLRLSCAASGLTFKWNAMGWYRHAPGKEREFVAAITKRAGSTYYADSVKGRFTISRDNAKNTVYLQMNSLKPEDTAVYYCAADDGYFYARYDYWGHGTQVTVSS”, the “polyreactivity (PSR sort gate)” value is “low polyreactivity”.

In the case of “QVQLVESGGGLVQAGVSLRLSCAASGLTFSKYAMGWYREAPGNERDLVAAITRGDRTYYADSVKGRFTISRDNAKNTVYLHMNSLKPADTAVYYCAARQYYWGQGTQVTVSS”, the “polyreactivity (PSR sort gate)” value is given as “high polyreactivity”.

On to “QVQLVESGGGLVQAGVSLRLSCAASGRIFGENAMGWYRQAPGEEREFVAVISISDASTYYADSVKGRFTISRDNAKNTVYFQMNSLKPEDTAVYYCAADLTDFLYVASDYCGQGTQVTVSS”, for which the “polyreactivity (PSR sort gate)” value is “low polyreactivity”.

As for “QVQLVESGGGLVQAGVSLRLSCAASGRIFYAYAMGWYRKAPGKERELVAAISSSGRTYYADSVKGRLTISRDNAKNTVYLQMNSLKPEDTAVYYCAVDWSRQAHKFNYWGQGTQVTVSS”, the “polyreactivity (PSR sort gate)” value was “high polyreactivity”.

“QVQLVESGGGLVQAGVSLRLSCAASGRTFGYNAMGWYRQAPGKERVVVAAITIGGSTNYADSVKGRFTISRDNAKNTVYLQMNSLKPEDTAVYYCAAYDTLLYWVEFYYWGQGTQVTVSS”: the “polyreactivity (PSR sort gate)” value is “low polyreactivity”.

On to “QVQLVESGGGLVQAGVSLRLSCAASGRTFGYYTMGWSRQAPGKERELVAGISSAGSTNYADSVKGRFTISRDNAKNTVYFQMNSLKPADTAVYDCAARTYKVIQNNSWETYYYWGQGTQVTVSS”, for which the “polyreactivity (PSR sort gate)” value was “high polyreactivity”.

Consider “QVQLVESGGGLVQAGVSLRLSCAASGRTFRSNAMGWYRQSPGKERELVAAITASGGNTYYADSVKGRFTISRDNAKNTVYLQMNSLKPEDTAVYYCAAVSRYNYGTNPYYYWGQGTQVTVSS”, for which the “polyreactivity (PSR sort gate)” value is on record as “high polyreactivity”.

Take “QVQLVESGGGLVQAGVSLRLSCAASGRTFTSYPMGLYRQAPGKERELVAAISSRGGSTSYADSVKGRLTISRDNANNTVYLQMNSLKEEDTAVYYCARRIRQQRFGGNYWGQGTQVTVSS”: the “polyreactivity (PSR sort gate)” value is given as “high polyreactivity”.

Regarding “QVQLVESGGGLVQAGVSLRLSCAASGRTFVHYTMGWSRQSPGKERELVATISTSGGSTSYADSVKGRFTISRDNAKNTVYLQMNSLKPEDTAVYYCAARWYFPDRVKYDYWGQGTQVSVSS”, the “polyreactivity (PSR sort gate)” value was “low polyreactivity”.

With “QVQLVESGGGLVQAGVSLRLSCAASGSTFSVNAMGWYRQAPGKERELVAAITYSGGSTYYADSVKGRFTISRDNAKNTVYLQMNSLKPEDTAVYYCAAEGGSALDDDYWGQGTQVTVSS”, the “polyreactivity (PSR sort gate)” value is recorded as “high polyreactivity”.

Regarding “QVQLVESGGGLVQAGVSLRLSCAASGSTFTSYAMGWYRQAPGKERELVAAINDSAGSTYYADSVKGRFTISRDNAKNTAYLQKNSLKPDDTAVYYCAADGYNRQYVTYYYWGQGTQVTVSS”, the “polyreactivity (PSR sort gate)” value is “low polyreactivity”.

As for “QVQLVESGGGLVQAGVSLRLSCAASGSTFTYYAMGWYRQAPGKERELVAAITNSGGSTYYAVSVKGRFTISRDNAKNTVYLQMNSLKPEDTAVYYCAATRVDSDDRTRFYYWGQGTQVTVSS”, the “polyreactivity (PSR sort gate)” value is “high polyreactivity”.

“QVQLVESGGGLVQAGVSLRLSCAASGSTFVGYAMGWYRQAPGKERELVAAISYSGGSTYYADSVKGRFTISRDNAKNTVYLQMHSLKPEDTAVYYCAAEWSRHYYYGPRYDYWGQGSQVTVSS”: the “polyreactivity (PSR sort gate)” value is listed as “low polyreactivity”.

On to “QVQLVESGGGLVQAGVSLRLSCAASGSTLVYYAMGWYRQAPGKERELVAAITRSGDNTYYADSVKGRFTISRDNAKNTVYLQMNSLKPEDTAVYYCAVKKRVYSGDYWGQGTQVTVSS”, for which the “polyreactivity (PSR sort gate)” value was “high polyreactivity”.

On to “QVQLVESGGGLVQAGVSLRLSCAASGSTYNAMGWYRQAPGKEREFVAAITSSGGSTYYADSVKGRFTISRDNAKNTVYLHMNSLNPEDTAVYYCASSYWTAWYQLDYWGQGTQVTVSS”, for which the “polyreactivity (PSR sort gate)” value was “high polyreactivity”.

Regarding “QVQLVESGGGLVQAGVSLRLSCASSGSIFPEYVMAWYRQAPGKERELVAAISWSGGSTYYADSVKGRITISRDNAKNTVYFQMNCLKQEATAVYYCNRVPSWRIDYDYWGQGTLVTVSS”, the “polyreactivity (PSR sort gate)” value is “low polyreactivity”.

As to “QVQLVESGGGLVQAGVSLRLSCDASGSIFDPYAMGWFRQAPGKEMELVAAITASGSSTYYADSVKGRFTISRDNAKNTVYLQMNSLKPEDTAVYYCAADRANWEYLLSWLGYDYWGQGTQVTVSS”, the “polyreactivity (PSR sort gate)” value was “low polyreactivity”.

As to “QVQLVESGGGLVQAGVSLRLSFAASGSTFRGYAMGWYRQAPGKEREVVAAISSRGARTHYAHSVKGRFTISRDNAKNTVYLQMYSLKPVDTAVNYCNKRQVFVSTGEYEFDYCGQGTQVTVSS”, the “polyreactivity (PSR sort gate)” value was “low polyreactivity”.

Turning to “QVQLVESGGGLVQAGVSLRVSCAASGRTFSRYTMGWYRQAPGKEREMVAAISKRGGSTYYADSVKGRFTISRDNAKNTVYLQRNSLKPEETAVYYCNAYGLVGLVGVIMYYWGQGTQVTVSS”, the “polyreactivity (PSR sort gate)” value is given as “high polyreactivity”.

Consider “QVQLVESGGGLVQARCSLRLSCAASGSTFLRYAMGWYRQAPGKERELVATISSSDDGTYYADSVKGRFTISRDIAKNTVYLQMNSLKPEDTAVYYCAARSWYLYYYWGQGTQVTVSS”, for which the “polyreactivity (PSR sort gate)” value is recorded as “low polyreactivity”.

Regarding “QVQLVESGGGLVQARGSLRLICAASGYIFRGYAMGWYRQAPGKERELVASISRTGVSTYYADSVKGRFTISRDNAKNTVYLQMNSLKPEDTAVYYCAADYYYWYYKSGYDYWGQGTQVTVSS”, the “polyreactivity (PSR sort gate)” value is recorded as “high polyreactivity”.

For “QVQLVESGGGLVQARGSLRLSCAASGFTFDTYAMGSYRQAPGKARELVAVLSRGGSTYYADSVKGRFTISRDKAKNTVYLQMNSLKPEDPAVYFCNAKHKQGRKQFKLGAGYYWGQGTQVTVSS”, the “polyreactivity (PSR sort gate)” value is on record as “high polyreactivity”.

The values above are taken from the nanobody polyreactivity screen of Harvey et al. (2022).
